From patent publication US20200085917A1

Legend:
Assay in all cases: GST pull-down, LC-MS/MS
[1] = target: Slc25a10_IPI:IPI00317074.3 (mouse) (UniProt Q9QZD8)
[2] = target: Coq3_IPI:IPI00467124.2 (mouse) (UniProt Q8BMS4)
[3] = target: Pptc7_IPI:IPI00421081.3 (mouse) (UniProt Q6NVE9)
[4] = target: Actg1_IPI:IPI00136929.1 (mouse) (UniProt P63260)
[5] = target: Mpst_IPI:IPI00604945.2 (mouse) (UniProt Q99J99)
[6] = target: Idh3g_IPI:IPI00109169.1 (mouse) (UniProt P70404)
[7] = target: Hint2_IPI:IPI00133034.3 (mouse) (UniProt Q9D0S9)
Hint2_IPI:IPI00133034.3 (mouse), sequence (Q9D0S9 18-163 limits assumed): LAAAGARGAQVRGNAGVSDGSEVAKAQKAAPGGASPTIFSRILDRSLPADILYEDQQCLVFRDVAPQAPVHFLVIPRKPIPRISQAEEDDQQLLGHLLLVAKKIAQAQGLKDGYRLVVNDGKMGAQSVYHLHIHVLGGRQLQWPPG

[8] = target: Sfxn1_IPI:IPI00115454.3 (mouse) (UniProt Q99JR1)
[9] = target: Chchd4_IPI:IPI00124389.1 (mouse) (UniProt Q8VEA4)
Chchd4_IPI:IPI00124389.1 (mouse), sequence (Q8VEA4 whole entry): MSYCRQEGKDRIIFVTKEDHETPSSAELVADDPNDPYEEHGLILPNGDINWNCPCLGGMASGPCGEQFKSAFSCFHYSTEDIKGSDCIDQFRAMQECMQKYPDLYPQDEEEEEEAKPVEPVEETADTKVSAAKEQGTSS

[10] = target: Mrpl43_IPI:IPI00278781.1 (mouse) (UniProt Q99N89)
Mrpl43_IPI:IPI00278781.1 (mouse), sequence (Q99N89 whole entry): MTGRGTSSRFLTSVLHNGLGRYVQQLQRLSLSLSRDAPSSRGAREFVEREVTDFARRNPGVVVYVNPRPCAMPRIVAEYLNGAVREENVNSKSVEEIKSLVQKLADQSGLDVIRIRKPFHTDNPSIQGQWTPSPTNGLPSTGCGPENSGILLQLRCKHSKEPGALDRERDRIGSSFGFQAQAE

[11] = target: Ociad2_IPI:IPI00112139.1 (mouse) (UniProt Q9D8W7)
[12] = target: Brp44_IPI:IPI00131896.1 (mouse) (UniProt Q9D023)
Brp44_IPI:IPI00131896.1 (mouse), sequence (Q9D023 whole entry): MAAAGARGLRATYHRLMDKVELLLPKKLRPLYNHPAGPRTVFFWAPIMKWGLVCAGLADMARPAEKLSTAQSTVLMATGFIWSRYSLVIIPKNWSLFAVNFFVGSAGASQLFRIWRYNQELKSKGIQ

[13] = target: Mthfd1l_IPI:IPI00228113.5 (mouse) (UniProt Q3V3R1)
[14] = target: Uqcrq_IPI:IPI00224210.5 (mouse) (UniProt Q9CQ69)
Uqcrq_IPI:IPI00224210.5 (mouse), sequence (Q9CQ69 whole entry): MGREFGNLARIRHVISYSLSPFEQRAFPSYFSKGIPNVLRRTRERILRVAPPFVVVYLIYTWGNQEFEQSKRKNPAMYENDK

[15] = target: Slc25a27_IPI:IPI00108998.1 (mouse) (UniProt Q9D6D0)
Slc25a27_IPI:IPI00108998.1 (mouse), sequence (Q9D6D0 whole entry): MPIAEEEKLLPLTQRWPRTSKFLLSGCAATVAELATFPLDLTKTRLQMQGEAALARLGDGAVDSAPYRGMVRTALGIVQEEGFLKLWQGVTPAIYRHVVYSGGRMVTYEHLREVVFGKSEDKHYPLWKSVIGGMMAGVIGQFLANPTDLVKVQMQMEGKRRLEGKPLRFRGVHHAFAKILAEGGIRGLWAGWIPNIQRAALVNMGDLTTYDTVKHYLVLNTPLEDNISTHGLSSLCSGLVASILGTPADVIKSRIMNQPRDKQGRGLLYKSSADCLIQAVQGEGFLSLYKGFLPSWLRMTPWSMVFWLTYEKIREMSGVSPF

[16] = target: Dsg1c_IPI:IPI00331259.3 (mouse) (UniProt Q7TSF0)
[17] = target: Afg3l2_IPI:IPI00170357.5 (mouse) (UniProt Q8JZQ2)
Afg3l2_IPI:IPI00170357.5 (mouse), sequence (Q8JZQ2 67-802 limits assumed): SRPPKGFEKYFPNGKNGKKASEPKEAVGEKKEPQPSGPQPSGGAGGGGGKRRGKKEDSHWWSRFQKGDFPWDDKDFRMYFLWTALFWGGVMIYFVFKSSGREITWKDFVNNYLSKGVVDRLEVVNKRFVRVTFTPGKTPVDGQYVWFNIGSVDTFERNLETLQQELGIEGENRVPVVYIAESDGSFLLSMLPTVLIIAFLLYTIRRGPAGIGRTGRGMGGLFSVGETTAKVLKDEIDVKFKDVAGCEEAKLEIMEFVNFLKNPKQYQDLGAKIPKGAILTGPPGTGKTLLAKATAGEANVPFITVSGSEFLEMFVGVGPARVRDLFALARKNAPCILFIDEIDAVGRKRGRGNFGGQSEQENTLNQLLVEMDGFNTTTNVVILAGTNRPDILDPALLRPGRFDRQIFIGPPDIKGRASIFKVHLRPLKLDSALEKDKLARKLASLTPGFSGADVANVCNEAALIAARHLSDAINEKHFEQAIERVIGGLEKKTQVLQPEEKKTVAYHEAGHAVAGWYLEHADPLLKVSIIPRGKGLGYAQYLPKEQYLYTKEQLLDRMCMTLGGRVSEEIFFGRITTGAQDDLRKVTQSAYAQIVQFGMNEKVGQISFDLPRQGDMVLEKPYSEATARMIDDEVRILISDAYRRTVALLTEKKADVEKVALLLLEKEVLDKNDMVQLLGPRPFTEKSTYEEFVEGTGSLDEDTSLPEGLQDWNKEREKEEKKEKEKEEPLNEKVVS

[18] = target: Dci_IPI:IPI00114416.1 (mouse) (UniProt P42125)
Dci_IPI:IPI00114416.1 (mouse), sequence (P42125 29-289 limits assumed): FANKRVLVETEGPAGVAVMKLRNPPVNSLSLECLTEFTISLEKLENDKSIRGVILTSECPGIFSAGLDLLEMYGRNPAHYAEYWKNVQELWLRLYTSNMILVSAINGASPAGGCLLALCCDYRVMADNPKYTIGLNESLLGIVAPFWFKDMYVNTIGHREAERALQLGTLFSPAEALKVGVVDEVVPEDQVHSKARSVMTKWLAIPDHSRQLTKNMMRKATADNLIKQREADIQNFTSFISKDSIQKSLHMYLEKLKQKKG

[19] = target: Tpi1_IPI:IPI00467833.6 (mouse) (UniProt P17751)
Tpi1_IPI:IPI00467833.6 (mouse), sequence (P17751 2-249 limits assumed): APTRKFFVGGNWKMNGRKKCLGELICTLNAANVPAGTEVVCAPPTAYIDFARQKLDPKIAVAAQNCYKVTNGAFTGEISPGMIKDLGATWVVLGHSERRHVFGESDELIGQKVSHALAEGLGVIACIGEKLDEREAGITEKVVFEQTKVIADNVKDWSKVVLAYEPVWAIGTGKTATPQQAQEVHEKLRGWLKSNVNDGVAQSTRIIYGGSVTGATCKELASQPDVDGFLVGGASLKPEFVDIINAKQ

[20] = target: Letm1_IPI:IPI00131177.1 (mouse) (UniProt Q9Z2I0)
Letm1_IPI:IPI00131177.1 (mouse), sequence (Q9Z2I0 115-738 limits assumed): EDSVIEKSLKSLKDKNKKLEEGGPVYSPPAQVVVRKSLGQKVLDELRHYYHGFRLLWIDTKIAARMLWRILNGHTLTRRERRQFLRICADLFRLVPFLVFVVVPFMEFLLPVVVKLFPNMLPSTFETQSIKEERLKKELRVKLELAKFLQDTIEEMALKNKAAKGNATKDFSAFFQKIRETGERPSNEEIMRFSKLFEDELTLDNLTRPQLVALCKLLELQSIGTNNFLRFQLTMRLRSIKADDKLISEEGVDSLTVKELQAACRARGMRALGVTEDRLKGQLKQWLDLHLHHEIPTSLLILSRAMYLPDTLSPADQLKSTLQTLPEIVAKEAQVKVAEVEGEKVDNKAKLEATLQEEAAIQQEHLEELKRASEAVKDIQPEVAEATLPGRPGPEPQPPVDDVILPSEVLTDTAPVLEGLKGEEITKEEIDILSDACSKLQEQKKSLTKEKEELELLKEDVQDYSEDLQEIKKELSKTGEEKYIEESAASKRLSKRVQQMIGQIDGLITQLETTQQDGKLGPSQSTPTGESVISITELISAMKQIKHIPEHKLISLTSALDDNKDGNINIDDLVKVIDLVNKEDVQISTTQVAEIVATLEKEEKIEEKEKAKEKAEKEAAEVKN

[21] = target: Cplx1_IPI:IPI00132278.1 (mouse) (UniProt P63040)
[22] = target: Hspa5_IPI:IPI00319992.1 (mouse) (UniProt P20029)
[23] = target: Oxa1l_IPI:IPI00308001.1 (mouse) (UniProt Q8BGA9)
[24] = target: Chchd3_IPI:IPI00133562.1 (mouse) (UniProt Q9CRB9)
Chchd3_IPI:IPI00133562.1 (mouse), sequence (Q9CRB9 2-227 limits assumed): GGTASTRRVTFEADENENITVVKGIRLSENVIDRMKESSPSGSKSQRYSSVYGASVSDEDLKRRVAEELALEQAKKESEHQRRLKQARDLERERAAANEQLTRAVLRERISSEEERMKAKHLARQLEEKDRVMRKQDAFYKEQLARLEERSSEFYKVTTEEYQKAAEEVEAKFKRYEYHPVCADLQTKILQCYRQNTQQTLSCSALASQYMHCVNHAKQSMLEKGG

[25] = target: 5730469M10Rik_IPI:IPI00187272.3 (mouse)
5730469M10Rik_IPI:IPI00187272.3 (mouse), sequence (Q9CYH2 whole entry): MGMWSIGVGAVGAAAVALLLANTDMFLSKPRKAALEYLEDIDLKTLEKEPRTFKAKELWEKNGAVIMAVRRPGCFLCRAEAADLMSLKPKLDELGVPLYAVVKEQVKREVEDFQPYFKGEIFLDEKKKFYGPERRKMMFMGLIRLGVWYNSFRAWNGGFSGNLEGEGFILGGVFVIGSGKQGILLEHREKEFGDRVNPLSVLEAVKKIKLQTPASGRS

[26] = target: Etfa_IPI:IPI00116753.4 (mouse) (UniProt Q99LC5)
[27] = target: Cisd3_IPI:IPI00345740.4 (mouse) (UniProt B1AR13)
Cisd3_IPI:IPI00345740.4 (mouse), sequence (B1AR13 whole entry): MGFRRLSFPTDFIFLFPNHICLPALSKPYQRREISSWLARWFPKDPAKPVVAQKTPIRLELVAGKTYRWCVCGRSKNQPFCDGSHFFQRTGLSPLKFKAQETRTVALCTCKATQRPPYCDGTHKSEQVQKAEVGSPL

[28] = target: Fabp5_IPI:IPI00114162.3 (mouse) (UniProt Q05816)
Fabp5_IPI:IPI00114162.3 (mouse), sequence (Q05816 2-135 limits assumed): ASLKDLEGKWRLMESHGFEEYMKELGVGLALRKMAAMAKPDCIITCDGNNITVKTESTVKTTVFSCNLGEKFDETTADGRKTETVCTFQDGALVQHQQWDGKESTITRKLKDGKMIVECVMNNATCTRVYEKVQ

[29] = target: Mtx1_IPI:IPI00112327.1 (mouse) (UniProt P47802)
Mtx1_IPI:IPI00112327.1 (mouse), sequence (P47802 whole entry): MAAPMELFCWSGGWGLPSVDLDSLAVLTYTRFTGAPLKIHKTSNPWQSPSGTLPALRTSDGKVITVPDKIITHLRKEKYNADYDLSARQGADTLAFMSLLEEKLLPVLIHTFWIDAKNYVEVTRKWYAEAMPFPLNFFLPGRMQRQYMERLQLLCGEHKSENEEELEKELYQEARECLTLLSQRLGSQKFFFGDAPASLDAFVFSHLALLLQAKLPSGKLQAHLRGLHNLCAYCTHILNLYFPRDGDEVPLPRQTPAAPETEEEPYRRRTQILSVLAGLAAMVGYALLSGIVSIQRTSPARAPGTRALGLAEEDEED

[30] = target: Asrgl1_IPI:IPI00223875.1 (mouse) (UniProt Q8C0M9)
[31] = target: Ppdpf_IPI:IPI00133078.1 (mouse) (UniProt Q9CR37)
Ppdpf_IPI:IPI00133078.1 (mouse), sequence (Q9CR37 whole entry): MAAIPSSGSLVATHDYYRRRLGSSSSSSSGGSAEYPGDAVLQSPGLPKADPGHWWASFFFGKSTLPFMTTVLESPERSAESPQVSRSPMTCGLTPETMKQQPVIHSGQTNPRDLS

[32] = target: 1700020C11Rik_IPI:IPI00315908.1 (mouse)
[33] = target: Slc25a19_IPI:IPI00118826.1 (mouse) (UniProt Q9DAM5)

Slc25a10_IPI:IPI00317074.3 (mouse), sequence (Q9QZD8 whole entry): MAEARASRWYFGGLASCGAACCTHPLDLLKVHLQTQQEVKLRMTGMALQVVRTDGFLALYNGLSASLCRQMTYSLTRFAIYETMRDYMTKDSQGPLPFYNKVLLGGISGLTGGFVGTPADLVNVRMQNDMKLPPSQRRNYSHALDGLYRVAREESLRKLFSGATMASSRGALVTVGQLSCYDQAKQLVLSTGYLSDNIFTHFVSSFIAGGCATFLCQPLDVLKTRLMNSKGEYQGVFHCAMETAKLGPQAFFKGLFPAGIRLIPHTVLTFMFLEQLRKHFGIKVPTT
Pptc7_IPI:IPI00421081.3 (mouse), sequence (Q6NVE9 75-310 limits assumed): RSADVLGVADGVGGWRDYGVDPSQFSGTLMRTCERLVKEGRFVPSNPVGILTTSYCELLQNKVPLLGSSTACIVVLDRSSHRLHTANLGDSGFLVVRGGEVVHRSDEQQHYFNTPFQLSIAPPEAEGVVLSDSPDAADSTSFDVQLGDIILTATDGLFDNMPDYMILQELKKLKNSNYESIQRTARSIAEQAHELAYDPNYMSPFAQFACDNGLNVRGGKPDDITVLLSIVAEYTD
GST-Httex1-97Q, sequence (P08515 1-218, tags or fused parts left off): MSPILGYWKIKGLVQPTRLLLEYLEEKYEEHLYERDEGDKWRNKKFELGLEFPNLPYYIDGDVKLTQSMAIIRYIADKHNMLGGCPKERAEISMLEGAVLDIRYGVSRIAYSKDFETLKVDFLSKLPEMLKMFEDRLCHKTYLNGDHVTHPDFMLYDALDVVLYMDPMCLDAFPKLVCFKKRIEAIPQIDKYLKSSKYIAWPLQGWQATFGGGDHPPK

## GST-Httex1-97Q (from UniProt P08515 1-218; P42858 1-88)
[1]
  No. of total peptides: 1 peptides
  No. of unique peptides: 1 peptides
[2]
  No. of total peptides: 2 peptides
  No. of unique peptides: 1 peptides
[3]
  No. of total peptides: 1 peptides
  No. of unique peptides: 1 peptides
[4]
  No. of total peptides: 1 peptides
  No. of unique peptides: 1 peptides
[5]
  No. of total peptides: 4 peptides
  No. of unique peptides: 4 peptides
[6]
  No. of total peptides: 2 peptides
  No. of unique peptides: 2 peptides
[7]
  No. of total peptides: 1 peptides
  No. of unique peptides: 1 peptides
[8]
  No. of total peptides: 2 peptides
  No. of unique peptides: 2 peptides
[9]
  No. of total peptides: 1 peptides
  No. of unique peptides: 1 peptides
[10]
  No. of total peptides: 1 peptides
  No. of unique peptides: 1 peptides
[11]
  No. of total peptides: 3 peptides
  No. of unique peptides: 3 peptides
[12]
  No. of total peptides: 5 peptides
  No. of unique peptides: 5 peptides
[13]
  No. of total peptides: 2 peptides
  No. of unique peptides: 2 peptides
[14]
  No. of total peptides: 1 peptides
  No. of unique peptides: 1 peptides
[15]
  No. of total peptides: 2 peptides
  No. of unique peptides: 2 peptides
[16]
  No. of total peptides: 1 peptides
  No. of unique peptides: 1 peptides
[17]
  No. of total peptides: 5 peptides
  No. of unique peptides: 4 peptides
[18]
  No. of total peptides: 7 peptides
  No. of unique peptides: 6 peptides
[19]
  No. of total peptides: 1 peptides
  No. of unique peptides: 1 peptides
[20]
  No. of total peptides: 4 peptides
  No. of unique peptides: 4 peptides
[21]
  No. of total peptides: 6 peptides
  No. of unique peptides: 4 peptides
[22]
  No. of total peptides: 1 peptides
  No. of unique peptides: 1 peptides
[23]
  No. of total peptides: 1 peptides
  No. of unique peptides: 1 peptides
[24]
  No. of total peptides: 2 peptides
  No. of unique peptides: 2 peptides
[25]
  No. of total peptides: 1 peptides
  No. of unique peptides: 1 peptides
[26]
  No. of total peptides: 4 peptides
  No. of unique peptides: 3 peptides
[27]
  No. of total peptides: 1 peptides
  No. of unique peptides: 1 peptides
[28]
  No. of total peptides: 1 peptides
  No. of unique peptides: 1 peptides
[29]
  No. of total peptides: 3 peptides
  No. of unique peptides: 3 peptides
[30]
  No. of total peptides: 1 peptides
  No. of unique peptides: 1 peptides
[31]
  No. of total peptides: 4 peptides
  No. of unique peptides: 4 peptides
[32]
  No. of total peptides: 1 peptides
  No. of unique peptides: 1 peptides
[33]
  No. of total peptides: 1 peptides
  No. of unique peptides: 1 peptides
